Data reported in the DeepSol protein solubility set.

test: soluble on expression in E. coli; label from the status in PepcDB or PDB records

Sequence	soluble on expression in E. coli
SAAAAFDPLGPLPVYLVSVRLGIYEDEHHRVWIVANVETSHSSHGNRRRTHVTVHLWKLIPQQVIPFNPLNYDFLPTTWKLESRNIYWATDGTHWRLLDHSQLGDTEQLILMLVLG	soluble
MKIATYNVRVDTEYDQDWQWSFRKEAVCQLINFHDWSLCCIQEVRPNQVRDLKAYTTFTCLSAEREGDGQGEGLAILYNEQKVQAIDTGYFWLSETPQQPSIHPEAGCPRIALWGLFKETTQNTPFLVINVHLDHISAHARLAGMTVILEELHDKIAQYPTLLMGDFNAESGEEVHQLVQKKFQDSKNLATHYGPRGTFQNFTYTKPWAELEEIDYIYVKGWQVQQTASLTDSIDGRFPSDHFPLEAEVAGENLYFQ	soluble
MRAFKAHLRGLSPYPYKKEEAPVKLDQNESPFDLPGALKEEALGRLRAIPWNRYPEIHAESLRKRLSALLDWPEEGIVLAPGSNLLILALSLAAEEVLDLRPSFPHYAHAAKVAGTPYRAVPLGEGFSLDLKALLAAFRGGVLFLPNPHAPTGALFPEEALRALAERAKEVGGLLVVDEAYREFAGTDFRFLARENPHVALLRTFSKAFSLGGVRAGYLLGSPEVAGVVREVLPPFVLPAHTGAVLEVVLENPGYVEKVVEEVVAQRERVYRELLAHPTWRPYPSRTNFLLVRTPDAEEAFRHLLSQGVLVRRQDRYPGLAGCLRVTVGRREEMDAFLRAAFGVAYA	soluble
MSKFLDRFRYFKQKGETFADGHGQLLNTNRDWEDGYRQRWQHDKIVRSTHGVNCTGSCSWKIYVKNGLVTWETQQTDYPRTRPDLPNHEPRGCPRGASYSWYLYSANRLKYPMMRKRLMKMWREAKALHSDPVEAWASIIEDADKAKSFKQARGRGGFVRSSWQEVNELIAASNVYTIKNYGPDRVAGFSPIPAMSMVSYASGARYLSLIGGTCLSFYDWYCDLPPASPQTWGEQTDVPESADWYNSSYIIAWGSNVPQTRTPDAHFFTEVRYKGTKTVAVTPDYAEIAKLCDLWLAPKQGTDAAMALAMGHVMLREFHLDNPSQYFTDYVRRYTDMPMLVMLEERDGYYAAGRMLRAADLVDALGQENNPEWKTVAFNTNGEMVAPNGSIGFRWGEKGKWNLEQRDGKTGEETELQLSLLGSQDEIAEVGFPYFGGDGTEHFNKVELENVLLHKLPVKRLQLADGSTALVTTVYDLTLANYGLERGLNDVNCATSYDDVKAYTPAWAEQITGVSRSQIIRIAREFADNADKTHGRSMIIVGAGLNHWYHLDMNYRGLINMLIFCGCVGQSGGGWAHYVGQEKLRPQTGWQPLAFALDWQRPARHMNSTSYFYNHSSQWRYETVTAEELLSPMADKSRYTGHLIDFNVRAERMGWLPSAPQLGTNPLTIAGEAEKAGMNPVDYTVKSLKEGSIRFAAEQPENGKNHPRNLFIWRSNLLGSSGKGHEFMLKYLLGTEHGIQGKDLGQQGGVKPEEVDWQDNGLEGKLDLVVTLDFRLSSTCLYSDIILPTATWYEKDDMNTSDMHPFIHPLSAAVDPAWEAKSDWEIYKAIAKKFSEVCVGHLGKETDIVTLPIQHDSAAELAQPLDVKDWKKGECDLIPGKTAPHIMVVERDYPATYERFTSIGPLMEKIGNGGKGIAWNTQSEMDLLRKLNYTKAEGPAKGQPMLNTAIDAAEMILTLAPETNGQVAVKAWAALSEFTGRDHTHLALNKEDEKIRFRDIQAQPRKIISSPTWSGLEDEHVSYNAGYTNVHELIPWRTLSGRQQLYQDHQWMRDFGESLLVYRPPIDTRSVKEVIGQKSNGNQEKALNFLTPHQKWGIHSTYSDNLLMLTLGRGGPVVWLSEADAKDLGIADNDWIEVFNSNGALTARAVVSQRVPAGMTMMYHAQERIVNLPGSEITQQRGGIHNSVTRITPKPTHMIGGYAHLAYGFNYYGTVGSNRDEFVVVRKMKNIDWLDGEGNDQVQESVK	soluble
MDGFGSHPRTLAVDQWMDIVNGKGYGVGGTTQVYSTRPDSPKFQPSIPPPPGSTSKTRTTATPWRLIDAETKRKKRIATYKTYALEGKVKSTVKKGFHWIKDRYSHIIHG	soluble
MGSDKIHHHHHHMKVTFLGHAVVLIEGKKNIIIDPFISGNPVCPVKLEGLPKIDYILVTHGHGDHLGDAVEIAKKNDATVISNYEICHYLGKKGVKTHAMHIGGSYLFDFGRVKMTPAVHGSGILDGDSMIYGGNPSGFLITIEGKKIYHAGDTGLTREMELLAEENVDVAFLPIGGNFVMDVEDAVRAAVMIKPKKVVPMHYGTWELIFADVELFKKKVEEKGVECVILEPGESLEL	not soluble
ENGRYEYIVIGSEAAGVGLVRELTAAGKKVLAVDKSKEKIELLEDEGFDAVIADPTDESFYRSLDLEGVSAVLITGSDDEFNLKILKALRSVSDVYAIVRVSSPKKKEEFEEAGANLVVLVADAVKQAFMDKIKKMETL	not soluble
MRKNVSDLEYTTWFAPVKPLGVQEGSLLLGVRNSFTKDWFRDHYLELLLAALRSLGAEHPQVEFQVLPAAQDALLLPNDPPPAPEAAAPTPKTKAAPTPPPSTPGDNRKTLNPKYTFENFVVGPNNNLAHAAALAVAESPGKAYNPLFIYGDVGLGKTHLMHAVGHYLAERFPEKRIEYVSTETFTNELINAIRDDKTTQFRNRYRSVDLLLVDDIQFLAGKERTQEEFFHTFNALYESNKQIILSSDRPPKDIQTLEGRLRSRFEWGLITDIQSPEYETRVAILKMNAEQGHITIPQEVLELIARQVTSNIRELEGALMRVVAFASLNNVPFSRAAAAKALSNVFAPQEAKVEMTDVLRQVAAHYGTTPDLIRGSGRARDIVVPRQVAQYLIRALTDHSLPEIGQFFGRDHSTVMHAVSKITEQMGKDPELAATVNTLRNRIQGKEEEEEVGALEHHHHHH	not soluble
MGSDKIHHHHHHMRRIRTLLSKKPSKLVFNLRKYAAFRQAWKSINVNRTSYSKTRRHYDAVVIGSDEVWNIQNPTFAMMPEYFGRGLNAKNIITYAPSSSKTTYADVAQNPLLAEGMRNIHHFSARDRNTFEIVEKIVNKPVTMVLDPTFLVEYDEEVEEAGVNSHGYVLVYTYQFDRLKIEKTRRFARSRGLRLISPCFYNDWCDEVVPCTPFGFLGLIRDAEYVVTDTFHGSIFSILYGKHFGSYASEKIKVAALLSALGLADRELGGVDDIGSVLDARIDYGRVRTCIEQERDVSLNYLRQALAPAG	not soluble
MRPIEEFVYVGNQVIVPDQASLMRCYYPIIGGEGYALYQYFVAFYDNGNHRHKFATILNHLNFGMQPLQESLAVLTAVDLLAFYHSPQGIYVVELKSPLSIEQFLKHAVYSSLLEQKIGEPAVDALKPTSLHGLQDLSKRFSDVFTDERLAQKSVSEIKPKNSFDLISFRNRMQADGLVFTDEKTDVPEIYKLSETYDMNWYDTYLLSKKTAVNHRIIVKRMQVQLEQAQAQKLGGDSALTETEKKILKAVKSGKPVDYLQSAKGPGGTVTNSEKKILTDLAQRGFMDEVINLMVAYSLGRTRSTNVNREYISKVANDFDFKKIVTAEQGLLALRSGYDKKSQRAKDDSKKKTNVPSWSDPDYDNQTNQADQAKLDEIRRRALAKLEKGKE	soluble
MIFHDVVESDLHDWECDDDYVCKFCTVRVNNWKIEIYQLWHYFFFLKDVVGVIVRKLNIAIDRDYTCEGLHVAGLIGYDYDKVEEYTGMCTICKLGDCGGMCRRVVEHCKKCGPIQEGVFETPFEKPHHFESLEITSFTIDCLLYGNRFRPTLVNFKNAPITVDSLSINAPSSGIPKVFLSAMMISKWKLLILKTCEDSPYAMEELQLSLTGKMLEEMSNNDYKVKHFRKCFPTKKMSIKILSQIENIQDIRKLCIQEKNLDLAIDIICDKSLLLKFWVSQKNTRGSFWKMKML	not soluble
MGSDKIHHHHHHMTQYEVDIMYEVKLDAFNGPLDLLLHLIQKFEIDIYDIPMQALTEQYMQYVHAMKQLEINIASEYLVLASELLMIKSKMLLPQSTSDMDVDDDPREDLVGRLIEYQNYKEYTAILNDMKEERDFYFTKRPTDLSHLETDESWDPNHTIDLTELIVAYQRVKNRVELNTPKSVEIRKETFTIQQATEQVTSRLKDKDHFNFFSLFTFSEPIEQVVTHFLAILEMSKAGIINIEQQRNFEDINIIRGVNYHFG	not soluble
MKLKAMYSFLSDDLAAVEEELERTVRSEYGPLGEAALHLLQAGGKRIRPVFVLLSARFGHYDFERIKHVAVALELIHMASLVHDDVIDDADVRRGRPTIKARWSNRFAMYTGDYLFARSLERMAELDSPRAHQVLAKTIVEVCHGEIEQIKDKYRFDQPLRTYLRRIRRKTALLIAASCQLGALAAGAPEAVANRLYWFGHCVGMSFQITDDILDFTGTEEQLGKPAGSDLQQGNVTLPVLYALCDEQVRAKITAVNADTDAEEMAAVLAAIKQTDAIERSYALSDRYLEKALRLLGELPANEARTLLHDLALYIGKRDY	not soluble
RPQGLHLELETRLQKMYGIRQVIVVEATEPDDEESIKQAIGSAAAHYLETSLSAQDHIGISSWSSTIRAMVSHMHPQPGKQSAQEVVQLLGGVGNKGAFEATLLTQRLATLLNCPAFLLPSQSIEQSVESKQRIVEMEEVKEVLHRFDSITLAIVGIGELEPSQLLRNSGNYYTEDMLRVLAERGAVGDICLRYFDAQGKPVLEEDEEFVVSMGLGKLRSINRVLGLAGGVRKVQAIKGALLGGYLDVLITDVGTARGLGG	soluble
MKVEGRCHCGAIAYEAEVEPGTITVCHCADCQMQSGSVFRANISAPADTFVLLQGTPKEYLKIAASGARRMHAFCGNCGGPIYSCAAENPQSYSLRVGALEQRHALGRPLRQIWARRRFSWLSSLGDVEEFDGQP	not soluble
MDIKIIKDKKNPLLNRRELDFIVKYEGSTPSRNDVRNKLAAMLNAPLELLVIQRIKTEYGMQESKGYAKLYEDADRMKQVEQEYVLKRNAVPGSETEGEEALEHHHHHH	soluble
MIVAFCLYKYFPFGGLQRDFMRIASTVAARGHHVRVYTQSWEGDCPKAFELIQVPVKSHTNHGRNAEYYAWVQNHLKEHPADRVVGFNKMPGLDVYFAADVCYAEKVAQEKGFLYRLTSRYRHYAAFERATFEQGKSTKLMMLTDKQIADFQKHYQTEPERFQILPPGIYPDRKYSEQIPNSREIYRQKNGIKEQQNLLLQVGSDFGRKGVDRSIEALASLPESLRHNTLLFVVGQDKPRKFEALAEKLGVRSNVHFFSGRNDVSELMAAADLLLHPAYQEAAGIVLLEAITAGLPVLTTAVCGYAHYIADANCGTVIAEPFSQEQLNEVLRKALTQSPLRMAWAENARHYADTQDLYSLPEKAADIITGGLDG	soluble
EGSIGNGLDLTGILFGNIDSEGRLLQDDDGEGRGGTGFDAELRENIGSLSKLGLDSMLLEVIDLKEA	soluble
QETEDPACCSPIVPRNEWKALASECAQHLSLPLRYVVVSHTAGSSCNTPASCQQQARNVQHYHMKTLGWCDVGYNFLIGEDGLVYEGRGWNFTGAHSGHLWNPMSIGISFMGNYMDRVPTPQAIRAAQGLLACGVAQGALRSNYVLKGHRDVQRTLSPGNQLYHLIQNWPHYRSP	soluble
MASMTGGQQMGRGSGIVQQQSNLLRAIEAQQHLLQLTVWGIKQGGGGSEWEREISNYTDIIYRLIEESQNQQEKNEQELLALDKWASLWNWFDITNWLWYIQHHHHHH	soluble
MSLFLNRLSLPKDYFIDTFLYYSDQDIAQISSYLPESNVSANVPGFKKNFVLKVFDHKIKPGETLSHVAARYQITSETLISFNEIKDVRNIKPNSVIKVPNMKGIVYIVKKNDSISSIASAYNVPKVDILDSNNLDNEVLFLGQKLFIPGGRLPKDFLKEVLGETFIYPVQGVITSGYGYRPDPFTGVISFHNGIDIANLANTPIKASREGVVVTAGFNAGGYGKYIVISHSNGFQTLYAHLNSFAVKVGKKVSRGAVIGYMGSTGYSTGNHLHFTIFKNGKTENPMKYEGHHHHHH	not soluble
MKVRHPFKVVVVTGVPGVGKTTVIKELQGLAEKEGVKLHIVNFGSFMLDTAVKLGLVEDRDKIRTLPLRRQLELQREAAKRIVAEASKALGGDGVLIIDTHALVKTVAGYWPGLPKHVLDELKPDMIAVVEASPEEVAARQARDTTRYRVDIGGVEGVKRLMENARAASIASAIQYASTVAIVENREGEAAKAAEELLRLIKNL	soluble
